Holding throughout (conditions): tags: N-terminal NLS PKKKRKV; TNT T7 expression from PCR product; label: DIG
In data set [1] the target is ZF6xHunt (Artificial). Description: EMSA; specific versus mutated sequences. (In general: Mobility shift assays separate free from complexed probe on a gel.)
For data set [2], the target named is ZF6xHunt (Artificial). The experiment in a line: EMSA; binds equally to (GCA)x6.
Data set [3] deals with ZF6xHunt (Artificial). The experiment in a line: EMSA; binds equally to (GCA-GCT)x3.

Chain of ZF6xHunt (Artificial) (chain, as listed by the source): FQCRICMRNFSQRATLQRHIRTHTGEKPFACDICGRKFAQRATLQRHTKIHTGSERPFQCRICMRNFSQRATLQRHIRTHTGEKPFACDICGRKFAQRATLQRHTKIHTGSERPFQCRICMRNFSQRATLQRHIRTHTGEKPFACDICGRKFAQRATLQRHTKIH

B1: (CAG)x7 probe (dsDNA)
DNA 1: CAGCAGCAGCAGCAGCAGCAG
DNA 2: CTGCTGCTGCTGCTGCTGCTG
With B1, the binding result with ZF6xHunt [1] is reported as “binds”.

B2: (GCA-GCT)x3 alternate probe (dsDNA)
DNA 1: GCAGCTGCAGCTGCAGCT
DNA 2: AGCTGCAGCTGCAGCTGC
In the case of B2, the binding result in the data set with ZF6xHunt [2] is on record as “binds”.

B3: (GCA)x6 probe (dsDNA)
DNA 1: GCAGCAGCAGCAGCAGCA
DNA 2: TGCTGCTGCTGCTGCTGC
Consider B3, for which the binding result with ZF6xHunt [3] was “binds”.

For the origin of these results see patent publication US20130336947, “PEPTIDES AND USES” (FUNDACIÓ PRIVADA CENTRE DE REGULACIÓ GENÓMICA, published 2013).
